The results in this text go back to the supplement of paper PMC9112550, “Optimization of the antimicrobial peptide Bac7 by deep mutational scanning” (BMC Biology, 2022).

The series relates to Escherichia coli TOP10. Nature of the series: shrunken log2 fold change of peptide-encoding DNA abundance (4.5 h post-induction vs induction); higher = less antimicrobial activity (less host growth inhibition). The following applies: time post-induction: 4.5 h; library: site-saturation at positions 5, 18, 19, 20.
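Note: peptides expressed intracellularly from a pBAD plasmid library in pooled LB shake-flask culture, induced with 0.3% L-arabinose, DNA abundance read by NGS, three biological replicates, DESeq2 with apeglm shrinkage.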

Consider RRIRWRPPRLPRPRPRPLGQPRP, for which the “shrunken log2 fold change” value came out at 0.0349.

For RRIRDRPPRLPRPRPRPRCRPRP, the “shrunken log2 fold change” value was -0.0929.

Regarding RRIRSRPPRLPRPRPRPITFPRP, the “shrunken log2 fold change” value is -0.716.

As for RRIRRRPPRLPRPRPRPQFQPRP, the “shrunken log2 fold change” value came to 0.00665.

In the case of RRIRCRPPRLPRPRPRPTYSPRP, the “shrunken log2 fold change” value is -1.01.

In the case of RRIRRRPPRLPRPRPRPMILPRP, the “shrunken log2 fold change” value was 0.359.

Turning to RRIRNRPPRLPRPRPRPSWNPRP, the “shrunken log2 fold change” value is -0.191.

For the sequence RRIRFRPPRLPRPRPRPLYMPRP, the “shrunken log2 fold change” value is -0.921.

On to RRIRKRPPRLPRPRPRPYYLPRP, for which the “shrunken log2 fold change” value is -0.278.

With RRIRCRPPRLPRPRPRPCAQPRP, the “shrunken log2 fold change” value came out at 0.101.

Turning to RRIRIRPPRLPRPRPRPLPVPRP, the “shrunken log2 fold change” value worked out at 0.094.

For the sequence RRIRPRPPRLPRPRPRPCQEPRP, the “shrunken log2 fold change” value is -0.0635.

In the case of RRIRMRPPRLPRPRPRPCHLPRP, the “shrunken log2 fold change” value was -0.0745.

With RRIRLRPPRLPRPRPRPVHFPRP, the “shrunken log2 fold change” value was -0.272.

RRIRRRPPRLPRPRPRPLSMPRP: the “shrunken log2 fold change” value turned out to be 0.263.

Turning to RRIRCRPPRLPRPRPRPGDDPRP, the “shrunken log2 fold change” value stood at 0.745.

For RRIRFRPPRLPRPRPRPIQQPRP, the “shrunken log2 fold change” value is 0.056.

Regarding RRIRRRPPRLPRPRPRPETHPRP, the “shrunken log2 fold change” value was found to be 0.697.

As to RRIRIRPPRLPRPRPRPFCVPRP, the “shrunken log2 fold change” value is -0.713.

Take RRIRCRPPRLPRPRPRPDLAPRP: the “shrunken log2 fold change” value is 0.102.

Regarding RRIRPRPPRLPRPRPRPYYVPRP, the “shrunken log2 fold change” value is -1.25.

RRIRVRPPRLPRPRPRPPAYPRP: the “shrunken log2 fold change” value was found to be 0.0576.

Regarding RRIRVRPPRLPRPRPRPPINPRP, the “shrunken log2 fold change” value came to 0.0484.

As for RRIRKRPPRLPRPRPRPFHRPRP, the “shrunken log2 fold change” value is -0.0303.

In the case of RRIRSRPPRLPRPRPRPCYCPRP, the “shrunken log2 fold change” value is -0.215.

Consider RRIRERPPRLPRPRPRPSQWPRP, for which the “shrunken log2 fold change” value was -0.176.

Regarding RRIRRRPPRLPRPRPRPWNDPRP, the “shrunken log2 fold change” value is -0.345.

Take RRIRIRPPRLPRPRPRPKYVPRP: the “shrunken log2 fold change” value was -0.134.

Regarding RRIRCRPPRLPRPRPRPTEPPRP, the “shrunken log2 fold change” value was determined as 0.305.

Turning to RRIRKRPPRLPRPRPRPKSNPRP, the “shrunken log2 fold change” value was 0.112.

With RRIRKRPPRLPRPRPRPGLCPRP, the “shrunken log2 fold change” value amounted to 0.168.

Regarding RRIRRRPPRLPRPRPRPWAHPRP, the “shrunken log2 fold change” value worked out at 0.0718.

Take RRIRPRPPRLPRPRPRPHTEPRP: the “shrunken log2 fold change” value amounted to 0.0462.

RRIRNRPPRLPRPRPRPSWMPRP: the “shrunken log2 fold change” value is -0.487.

For RRIRQRPPRLPRPRPRPQPSPRP, the “shrunken log2 fold change” value stood at 0.44.

On to RRIRNRPPRLPRPRPRPRKHPRP, for which the “shrunken log2 fold change” value was -0.194.

On to RRIRMRPPRLPRPRPRPDWPPRP, for which the “shrunken log2 fold change” value was 0.637.

On to RRIRMRPPRLPRPRPRPWNRPRP, for which the “shrunken log2 fold change” value was -0.51.

For the sequence RRIRIRPPRLPRPRPRPDDRPRP, the “shrunken log2 fold change” value was determined as 0.0115.

For the sequence RRIRRRPPRLPRPRPRPWRRPRP, the “shrunken log2 fold change” value is 0.358.

On to RRIRGRPPRLPRPRPRPEIYPRP, for which the “shrunken log2 fold change” value is 0.26.

As to RRIRERPPRLPRPRPRPVWQPRP, the “shrunken log2 fold change” value was 0.123.

Consider RRIRLRPPRLPRPRPRPQESPRP, for which the “shrunken log2 fold change” value was 0.133.

In the case of RRIRRRPPRLPRPRPRPGQPPRP, the “shrunken log2 fold change” value worked out at 0.262.

RRIRRRPPRLPRPRPRPCSYPRP: the “shrunken log2 fold change” value was -0.19.

In the case of RRIRPRPPRLPRPRPRPKNNPRP, the “shrunken log2 fold change” value was -0.475.

On to RRIRGRPPRLPRPRPRPFIPPRP, for which the “shrunken log2 fold change” value was -0.429.

On to RRIRQRPPRLPRPRPRPPAKPRP, for which the “shrunken log2 fold change” value was 0.358.

In the case of RRIRWRPPRLPRPRPRPLWVPRP, the “shrunken log2 fold change” value is 0.0766.

Take RRIRDRPPRLPRPRPRPPAAPRP: the “shrunken log2 fold change” value worked out at 1.13.

As to RRIRWRPPRLPRPRPRPLHLPRP, the “shrunken log2 fold change” value was -0.234.

On to RRIRVRPPRLPRPRPRPMGSPRP, for which the “shrunken log2 fold change” value was -0.000992.

Take RRIRQRPPRLPRPRPRPTQNPRP: the “shrunken log2 fold change” value was 0.627.

As for RRIRNRPPRLPRPRPRPRCFPRP, the “shrunken log2 fold change” value was -0.404.

Consider RRIRQRPPRLPRPRPRPPKCPRP, for which the “shrunken log2 fold change” value is -0.37.

Turning to RRIRGRPPRLPRPRPRPILCPRP, the “shrunken log2 fold change” value stood at 0.174.

For the sequence RRIRIRPPRLPRPRPRPAYAPRP, the “shrunken log2 fold change” value was -0.197.

On to RRIRHRPPRLPRPRPRPNSCPRP, for which the “shrunken log2 fold change” value is -0.089.

On to RRIRFRPPRLPRPRPRPCDSPRP, for which the “shrunken log2 fold change” value was -0.0928.

Consider RRIRWRPPRLPRPRPRPKSWPRP, for which the “shrunken log2 fold change” value was 0.389.

For RRIRVRPPRLPRPRPRPGHGPRP, the “shrunken log2 fold change” value came to 0.00601.

In the case of RRIRNRPPRLPRPRPRPCQVPRP, the “shrunken log2 fold change” value is -0.106.

Turning to RRIRHRPPRLPRPRPRPETQPRP, the “shrunken log2 fold change” value was -0.137.

In the case of RRIRERPPRLPRPRPRPARDPRP, the “shrunken log2 fold change” value was found to be 0.19.

For RRIRERPPRLPRPRPRPRYSPRP, the “shrunken log2 fold change” value was -0.182.

Consider RRIRARPPRLPRPRPRPMAGPRP, for which the “shrunken log2 fold change” value was found to be 0.163.

With RRIRVRPPRLPRPRPRPVNQPRP, the “shrunken log2 fold change” value was -0.0283.

Consider RRIRNRPPRLPRPRPRPGTAPRP, for which the “shrunken log2 fold change” value is -0.0363.

For the sequence RRIRCRPPRLPRPRPRPKWNPRP, the “shrunken log2 fold change” value is -0.373.

Turning to RRIRFRPPRLPRPRPRPMHKPRP, the “shrunken log2 fold change” value was -0.263.

Consider RRIRERPPRLPRPRPRPYDCPRP, for which the “shrunken log2 fold change” value is -0.0948.

Regarding RRIRGRPPRLPRPRPRPVARPRP, the “shrunken log2 fold change” value was found to be 0.58.

With RRIRRRPPRLPRPRPRPHVPPRP, the “shrunken log2 fold change” value is -0.148.

As for RRIRVRPPRLPRPRPRPAITPRP, the “shrunken log2 fold change” value is -0.142.

As to RRIRMRPPRLPRPRPRPMYDPRP, the “shrunken log2 fold change” value is -0.0496.

With RRIRKRPPRLPRPRPRPIMCPRP, the “shrunken log2 fold change” value was -0.0176.

Regarding RRIRFRPPRLPRPRPRPEKPPRP, the “shrunken log2 fold change” value was -0.0143.

Regarding RRIRHRPPRLPRPRPRPAMWPRP, the “shrunken log2 fold change” value amounted to 0.00652.

As for RRIRARPPRLPRPRPRPMVVPRP, the “shrunken log2 fold change” value is -0.0787.

For the sequence RRIRLRPPRLPRPRPRPSCVPRP, the “shrunken log2 fold change” value is -0.0228.

On to RRIRLRPPRLPRPRPRPVWPPRP, for which the “shrunken log2 fold change” value turned out to be 0.422.

For the sequence RRIRWRPPRLPRPRPRPVCVPRP, the “shrunken log2 fold change” value was 0.193.

Consider RRIRSRPPRLPRPRPRPLFSPRP, for which the “shrunken log2 fold change” value was -0.0902.

Regarding RRIRERPPRLPRPRPRPFQAPRP, the “shrunken log2 fold change” value is -0.215.

With RRIRNRPPRLPRPRPRPCMKPRP, the “shrunken log2 fold change” value is -0.507.

In the case of RRIRRRPPRLPRPRPRPCTTPRP, the “shrunken log2 fold change” value was 0.212.

Regarding RRIRKRPPRLPRPRPRPNHSPRP, the “shrunken log2 fold change” value is -0.321.

Take RRIRSRPPRLPRPRPRPKGDPRP: the “shrunken log2 fold change” value was -0.011.

In the case of RRIRRRPPRLPRPRPRPERDPRP, the “shrunken log2 fold change” value worked out at 0.423.

Take RRIRQRPPRLPRPRPRPKVGPRP: the “shrunken log2 fold change” value was found to be 0.011.

As to RRIRQRPPRLPRPRPRPGEYPRP, the “shrunken log2 fold change” value is -0.0469.

RRIRGRPPRLPRPRPRPWSSPRP: the “shrunken log2 fold change” value is -0.0552.

On to RRIRIRPPRLPRPRPRPTIKPRP, for which the “shrunken log2 fold change” value was -0.611.

Take RRIRIRPPRLPRPRPRPPCVPRP: the “shrunken log2 fold change” value was -0.173.

For RRIRGRPPRLPRPRPRPNAKPRP, the “shrunken log2 fold change” value was 1.22.

Regarding RRIRTRPPRLPRPRPRPDPWPRP, the “shrunken log2 fold change” value was found to be 0.0451.

In the case of RRIRHRPPRLPRPRPRPKNEPRP, the “shrunken log2 fold change” value is -0.476.

Take RRIRLRPPRLPRPRPRPTWKPRP: the “shrunken log2 fold change” value is -0.06.

Regarding RRIRYRPPRLPRPRPRPFTFPRP, the “shrunken log2 fold change” value is -1.08.

In the case of RRIRGRPPRLPRPRPRPGSMPRP, the “shrunken log2 fold change” value was 0.305.

In the case of RRIRTRPPRLPRPRPRPGLKPRP, the “shrunken log2 fold change” value was 0.0372.

Take RRIRRRPPRLPRPRPRPAWDPRP: the “shrunken log2 fold change” value was 0.324.

For RRIRLRPPRLPRPRPRPCWSPRP, the “shrunken log2 fold change” value is -0.172.

Regarding RRIRQRPPRLPRPRPRPTLQPRP, the “shrunken log2 fold change” value is 0.276.

As to RRIRARPPRLPRPRPRPSDGPRP, the “shrunken log2 fold change” value was found to be 0.0321.

For RRIRLRPPRLPRPRPRPVLQPRP, the “shrunken log2 fold change” value is 0.195.

Consider RRIRQRPPRLPRPRPRPRSQPRP, for which the “shrunken log2 fold change” value was determined as 0.0421.

For the sequence RRIRERPPRLPRPRPRPTWVPRP, the “shrunken log2 fold change” value was determined as 0.138.

As to RRIRMRPPRLPRPRPRPDQIPRP, the “shrunken log2 fold change” value was 0.0408.

Consider RRIRVRPPRLPRPRPRPSQHPRP, for which the “shrunken log2 fold change” value is -0.39.

Consider RRIRPRPPRLPRPRPRPLVEPRP, for which the “shrunken log2 fold change” value was 0.846.

Take RRIRRRPPRLPRPRPRPHWNPRP: the “shrunken log2 fold change” value is -0.159.

For RRIRVRPPRLPRPRPRPEWTPRP, the “shrunken log2 fold change” value came to 0.171.

For the sequence RRIRFRPPRLPRPRPRPSVMPRP, the “shrunken log2 fold change” value was -0.537.

For the sequence RRIRFRPPRLPRPRPRPKSHPRP, the “shrunken log2 fold change” value was -0.506.

Take RRIRIRPPRLPRPRPRPTQDPRP: the “shrunken log2 fold change” value was -0.236.

RRIRCRPPRLPRPRPRPWWEPRP: the “shrunken log2 fold change” value was -0.368.

For the sequence RRIRVRPPRLPRPRPRPYNEPRP, the “shrunken log2 fold change” value was -0.429.

For RRIRGRPPRLPRPRPRPRCKPRP, the “shrunken log2 fold change” value stood at 0.476.

Consider RRIRPRPPRLPRPRPRPWKIPRP, for which the “shrunken log2 fold change” value is -0.244.

With RRIRNRPPRLPRPRPRPVNRPRP, the “shrunken log2 fold change” value was found to be 0.00717.

Turning to RRIRKRPPRLPRPRPRPQTRPRP, the “shrunken log2 fold change” value came to 0.358.

RRIRNRPPRLPRPRPRPKTDPRP: the “shrunken log2 fold change” value was -0.206.

RRIRRRPPRLPRPRPRPEGMPRP: the “shrunken log2 fold change” value was determined as 1.27.

Consider RRIRYRPPRLPRPRPRPNYHPRP, for which the “shrunken log2 fold change” value was -1.04.
